Data published in US20240317847A1 (Bayer, published 2024).
Where a chain is given by its changes, count along the chain named.

T1: murine IL-11 (mouse, UniProt P47873 22-199)
T1 sequence: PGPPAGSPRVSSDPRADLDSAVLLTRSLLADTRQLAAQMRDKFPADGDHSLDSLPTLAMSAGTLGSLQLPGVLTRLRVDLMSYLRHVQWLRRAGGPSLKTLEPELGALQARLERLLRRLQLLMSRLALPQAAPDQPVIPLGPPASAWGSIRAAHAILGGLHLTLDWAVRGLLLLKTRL

T2: human IL-11 (human, UniProt P20809 22-199)
T2 sequence: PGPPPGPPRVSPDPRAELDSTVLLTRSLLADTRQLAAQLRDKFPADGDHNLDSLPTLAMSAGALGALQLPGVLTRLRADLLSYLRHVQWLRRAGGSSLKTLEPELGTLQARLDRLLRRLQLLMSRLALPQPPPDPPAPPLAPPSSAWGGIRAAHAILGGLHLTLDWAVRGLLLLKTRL

T3: rat IL-11 (rat, UniProt Q99MF5 22-199)
T3 sequence: T1 sequence with S50N, L84F, G94A, V137A, I138V

T4: cynomolgus IL-11 (cynomolgus, UniProt P20808 22-199)
T4 sequence: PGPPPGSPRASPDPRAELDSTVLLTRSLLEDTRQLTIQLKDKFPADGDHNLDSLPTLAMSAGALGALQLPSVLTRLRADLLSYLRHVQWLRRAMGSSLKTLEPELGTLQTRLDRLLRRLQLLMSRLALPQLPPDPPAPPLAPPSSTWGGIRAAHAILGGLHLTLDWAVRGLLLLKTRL

T5: murine IL-11 (mouse, UniProt P47873 22-199)
T5 construct: bought from Invigate; also called mIL-11; mIL11
T5 sequence: T1 sequence

T6: human IL-11 (human, UniProt P20809 22-199)
T6 construct: bought from Invigate; also called hIL-11; hIL11
T6 sequence: T2 sequence

B1: TPP-29522 (antibody, mouse IgG1)
heavy: QVQLVESGGGVVQPGRSLRLSCAASGFTFSHYDMHWVRQAPGKGLEWVAVISYEGSNKFYADSVKGRFTISRDNSKNTLYLQMNSLRAEDTAVYYCARTPGFHFDYWGQGTLVTVSSAKTTPPSVYPLAPGSAAQTNSMVTLGCLVKGYFPEPVTVTWNSGSLSSGVHTFPAVLQSDLYTLSSSVTVPSSTWPSETVTCNVAHPASSTKVDKKIVPRDCGCKPCICTVPEVSSVFIFPPKPKDVLTITLTPKVTCVVVDISKDDPEVQFSWFVDDVEVHTAQTQPREEQFNSTFRSVSELPIMHQDWLNGKEFKCRVNSAAFPAPIEKTISKTKGRPKAPQVYTIPPPKEQMAKDKVSLTCMITDFFPEDITVEWQWNGQPAENYKNTQPIMDTDGSYFVYSKLNVQKSNWEAGNTFTCSVLHEGLHNHHTEKSLSHSPGK
light: QSVLTQPPSASGTPGQRVTISCSGSSSNIGSNYVNWYQQLPGTAPKLLIYYDDLRPSGVPDRFSGSKSGTSASLAISGLRSEDEADYYCSAWDDSLSGVVFGGGTKLTVLGQPKSSPSVTLFPPSSEELETNKATLVCTITDFYPGVVTVDWKVDGTPVTQGMETTQPSKQSNNKYMASSYLTLTARAWERHSSYSCQVTHEGHTVEKSLSRADCS
notes: mIgG1, Lambda
B2: TPP-31293 (antibody, IgG4, V domains shown)
VH: EVQLLESGGGLVQPGGSLRLSCAASGFTFSHYDMNWVRQAPGKGLEWVGVISYDGSNKFYADFVKGRFTISRDNSKNTLYLQMNSLRAEDTAVYYCARTPGSHFDYWGQGTLVTVSS
VL: QSVLTQPPSASGTPGQRVTISCSGSSSNIGNNAVNWYQQLPGTAPKLLIYYDDLLPSGVPDRFSGSKSGTSASLAISGLRSEDEADYYCSAWDDSLNGVVFGGGTKLTVL
notes: hIgG4 SPLE, lambda
B3: TPP-31296 (antibody, IgG4, V domains shown)
VH: B2 VH with V37L, F63S
VL: B2 VL
notes: hIgG4 SPLE, lambda
B4: TPP-31294 (antibody, IgG4, V domains shown)
VH: B2 VH with V37L, G49A
VL: B2 VL
notes: hIgG4 SPLE, lambda
B5: TPP-23580 (antibody, mouse IgG1, kappa)
heavy: EVQLVQSGAEVKKPGASVKISCKASGYTFTDYNMDWVKQAPGQRLEWIGDINPHNGGPIYNQKFTGRATLTVDKSASTAYMELSSLRSEDTAVYYCARGELGHWYFDVWGQGTTVTVSSAKTTPPSVYPLAPGSAAQTNSMVTLGCLVKGYFPEPVTVTWNSGSLSSGVHTFPAVLQSDLYTLSSSVTVPSSTWPSETVTCNVAHPASSTKVDKKIVPRDCGCKPCICTVPEVSSVFIFPPKPKDVLTITLTPKVTCVVVDISKDDPEVQFSWFVDDVEVHTAQTQPREEQFNSTFRSVSELPIMHQDWLNGKEFKCRVNSAAFPAPIEKTISKTKGRPKAPQVYTIPPPKEQMAKDKVSLTCMITDFFPEDITVEWQWNGQPAENYKNTQPIMDTDGSYFVYSKLNVQKSNWEAGNTFTCSVLHEGLHNHHTEKSLSHSPGK
light: DIVLTQSPASLALSPGERATLSCRASKSVSTSGYSYIHWYQQKPGQPPRLLIYLASNLDSGVPARFSGSGSGTDFTLNIHPLEEEDFATYYCQHSRDLPPTFGQGTKLEIKRADAAPTVSIFPPSSEQLTSGGASVVCFLNNFYPKDINVKWKIDGSERQNGVLNSWTDQDSKDSTYSMSSTLTLTKDEYERHNSYTCEATHKTSTSPIVKSFNRNEC
notes: text calls it the mouse IgG1 version of the WO2019238882 antibody; also called BSN 3C6 2.2-2.1-mIgG1Kappa

Key:
murine IL-11 [1] = biological target: T1, murine IL-11; test: cell-based or functional assay
human IL-11 [2] = biological target: T2, human IL-11; test: cell-based or functional assay
rat IL-11 [3] = biological target: T3, rat IL-11; test: cell-based or functional assay
cynomolgus IL-11 [4] = biological target: T4, cynomolgus IL-11; test: cell-based or functional assay
murine IL-11 [5] = biological target: T1, murine IL-11; test: SPR 37 C, antibody captured, IL-11 as analyte
Description: (§1) To assess the binding kinetics and affinity of anti-IL-11 antibodies as well as their species cross-reactivity profile, binding assays were conducted using surface plasmon resonance (SPR). Binding assays were performed on a Biacore T200 instrument or on a Biacore 8K+ instrument (Cytiva) at 37° C. using assay buffer HBS EP+, 300 mM NaCl, 1 mg/ml BSA, 0.05% NaN3. Antibodies were captured either via anti-human Fc IgGs (“Human antibody capture kit”, Order No. BR100839, Cytiva) or via anti-mouse Fc IgGs (“Mouse antibody capture kit, Order No. BR100383, Cytiva) covalently amine coupled to a Series S CM5 sensor chip (Cytiva) depending on the isotype. The amine coupling was carried out according to the manufacturer's instructions using 1-ethyl-3-(3-dimethylaminopropyl) carbodiimide hydrochloride (EDC), N-hydroxysuccinimide (NHS) and ethanolamine HCl, pH 8.5 (“Amine Coupling Kit” BR-1000-50, Cytiva.). Human, mouse, cynomolgus or rat IL-11 was used as analyte at several dilutions within the concentration range from 0.05-200 nM. For binding assays with only one concentration 200 nM IL-11 was used. The sensor surface was regenerated with glycine pH 1.7 after each antigen injection. Obtained sensorgrams were double referenced (subtraction of reference flow cell signal and buffer injection) and were fitted to a 1:1 Langmuir binding model to derive kinetic data using the Biacore T200 Evaluation software or the Biacore Insight software. If no value is reported, there was either no binding or very low binding and multiphasic binding behavior. Values below 1E-12 were considered to be below the dynamic range of the instrument and set to <1E-12.

human IL-11 [6] = biological target: T2, human IL-11; test: SPR 37 C, antibody captured, IL-11 as analyte
Description: as §1

rat IL-11 [7] = biological target: T3, rat IL-11; test: SPR 37 C, antibody captured, IL-11 as analyte
Description: as §1

cynomolgus IL-11 [8] = biological target: T4, cynomolgus IL-11; test: SPR 37 C, antibody captured, IL-11 as analyte
Description: as §1

murine IL-11 [9] = biological target: T1, murine IL-11; test: Di-complex ELISA, competitor canine IL11RA-Fc on coated IL-11;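 for Efficacy (%): signal drop relative to signal at lowest antibody concentration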
Description: (§2) The assay is performed using streptavidin coated microtiter plates (Greiner bio-one, #781997). In a first step, 10 nM biotinylated mouse IL-11 (Invigate, Germany, e.g., lot #C210819-09) or human IL-11 (Invigate, Germany, e.g., lot #C121021-19) is coated in 25 μl PBS on the plate at 4° C. overnight. Next day, the plate is washed three times with 50 μl PBST and then blocked with 50 μl SmartBlock (Candor, #113125) for one hour at room temperature (RT). After additional three washes with PBST, 25 μl of a mixture of the murine anti IL-11 antibody and recombinant canine IL11RA-Fc fusion protein (Sino Biological, #70078-D02H) in PBS-T, 10% Smartblock are added simultaneously to the plate and incubated for one hour at RT. […] After three additional washes with PBS-T, 25 μl anti-human-POD (Sigma, #A0170) in PBS-T, 10% Smartblock is added and incubated for 1 hour at RT. After a final three washes with PBS-T, 25 μl AmplexRed (Fisher Scientific, A12222), 1/1000 in PBS, 0,003% H₂O₂, is added as substrate and incubated for 15 min at RT in the dark. Then, the fluorescence is measured with a plate reader at 535/595 nm. Signals from dose responses were used to calculate IC50 values (GraphPad Prism). Efficacy was calculated as [(signal measured at lowest antibody concentration−signal measured at the highest antibody concentration)×100] divided by (signal measured at lowest antibody concentration−signal measured in the absence of IL11Ra).
(§3) IgG converted antibodies were subjected to the experimental assay procedure described in Example 18.

human IL-11 [10] = biological target: T2, human IL-11; test: as above
Description: as §2, §3

murine IL-11 [11] = biological target: T5, murine IL-11; test: SPR; limit told of 12 single-site germlining mutants; antigen not given, SPR run on human and mouse IL-11
human IL-11 [12] = biological target: T6, human IL-11; test: as above
murine IL-11 [13] = biological target: T5, murine IL-11; test: cell-based or functional assay; remark: listed apart in the source
human IL-11 [14] = biological target: T6, human IL-11; test: cell-based or functional assay; remark: listed apart in the source
murine IL-11 [15] = biological target: T5, murine IL-11; test: cell-based or functional assay; remark: listed apart in the source
human IL-11 [16] = biological target: T6, human IL-11; test: cell-based or functional assay; remark: listed apart in the source

Binder | RGA Efficacy (%) (murine IL-11 [1]) | RGA IC50 (murine IL-11 [1]) [nM] | RGA Efficacy (%) (human IL-11 [2]) | RGA Efficacy (%) (rat IL-11 [3]) | RGA IC50 (rat IL-11 [3]) [nM] | RGA Efficacy (%) (cynomolgus IL-11 [4]) | Kd (murine IL-11 [5]) [nM] | Kd (human IL-11 [6]) [nM] | Kd (rat IL-11 [7]) [nM] | Efficacy (%) (murine IL-11 [9]) | Efficacy (%) (human IL-11 [10]) | Kd (murine IL-11 [11]) [nM] | Kd (human IL-11 [12]) [nM] | RGA potency (mean) (murine IL-11 [13]) [nM] | RGA potency (mean) (human IL-11 [14]) [nM] | IC50, RGA 1 (murine IL-11 [15]) [nM] | IC50, RGA 2 (murine IL-11 [15]) [nM] | IC50, RGA 1 (human IL-11 [16]) [nM] | IC50, RGA 2 (human IL-11 [16]) [nM] | other results
B1 | 101 | 0.78 | 98.6 | 101 | 1.6 | 52 | 0.029 | 0.034 | 0.34 | 3.6 | 0 |  |  |  |  |  |  |  |  | RGA IC50 (human IL-11 [2]): 1.6 nM; Kd (cynomolgus IL-11 [8]): 24 nM
B2 |  |  |  |  |  |  |  |  |  |  |  | < 19 | < 19 | < 170 | < 170 | 31 | 13 | 58 | 13 | 
B3 |  |  |  |  |  |  |  |  |  |  |  | < 19 | < 19 | < 170 | < 170 | 20 | 22 | 46 | 158 | 
B4 |  |  |  |  |  |  |  |  |  |  |  | < 19 | < 19 | < 170 | < 170 | 41 | 28 | 96 | 38 | 
B5 | 88.9 | 7.9 | 64 | 62.2 | 14 | 21.9 | 2.4 | 2.1 | 4.1 | 93 | 93.3 |  |  |  |  |  |  |  |  | binding result (cynomolgus IL-11 [8]): no binding (tested: IL-11 up to 200 nM); IC50 (murine IL-11 [9]): 6.8 nM; IC50 (human IL-11 [10]): 10 nM
